This is an account of results in patent publication US20040162238A1.

Like-named read-outs stand apart in the source and are kept apart here.

What all share (assay): cell-based or functional assay
Test [1] addresses GPCR73a receptor (Homo sapiens (Human)) (UniProt Q8TCW9).
For test [2], the target named is GPCR73b receptor (Homo sapiens (Human)) (UniProt Q8NFJ6).
The target in test [3] is GPCR73a receptor (Homo sapiens (Human)) (UniProt Q8TCW9). The source holds these as a separate data set.
Test [4] concerns the target GPCR73b receptor (Homo sapiens (Human)) (UniProt Q8NFJ6). This is another data set of the same source.
Test [5] deals with Zven1 receptor on Wky12-22 cells (rat).

Chain of GPCR73a receptor (Homo sapiens (Human)) (Q8TCW9 whole entry): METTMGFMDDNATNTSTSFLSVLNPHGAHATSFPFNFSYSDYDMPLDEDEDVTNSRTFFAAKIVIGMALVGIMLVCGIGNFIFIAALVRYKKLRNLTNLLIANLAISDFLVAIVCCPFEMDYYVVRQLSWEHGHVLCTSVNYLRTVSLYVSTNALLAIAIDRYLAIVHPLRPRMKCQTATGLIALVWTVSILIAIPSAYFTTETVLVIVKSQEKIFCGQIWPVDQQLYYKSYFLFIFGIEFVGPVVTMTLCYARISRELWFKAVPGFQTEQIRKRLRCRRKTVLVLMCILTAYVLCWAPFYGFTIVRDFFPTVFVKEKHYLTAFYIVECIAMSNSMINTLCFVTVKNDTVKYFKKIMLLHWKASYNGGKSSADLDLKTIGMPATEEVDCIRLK
Chain of GPCR73b receptor (Homo sapiens (Human)) (Q8NFJ6 whole entry): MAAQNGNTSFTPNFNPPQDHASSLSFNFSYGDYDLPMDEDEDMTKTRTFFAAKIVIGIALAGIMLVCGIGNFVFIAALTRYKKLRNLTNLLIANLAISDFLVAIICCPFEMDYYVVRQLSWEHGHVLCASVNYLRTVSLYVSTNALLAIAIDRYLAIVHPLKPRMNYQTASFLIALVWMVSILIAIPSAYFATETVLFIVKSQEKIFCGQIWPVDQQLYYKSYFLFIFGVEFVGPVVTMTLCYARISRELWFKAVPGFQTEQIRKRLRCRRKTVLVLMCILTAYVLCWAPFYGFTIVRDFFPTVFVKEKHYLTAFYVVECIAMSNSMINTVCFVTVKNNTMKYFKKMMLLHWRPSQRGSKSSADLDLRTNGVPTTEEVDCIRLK

B1: Zven2 ("endocrine-gland-derived vascular endothelial growth factor") protein purchased from Peprotech, Inc. (ligand)
chain: AVITGACERDVQCGAGTCCAISLWLRGLRMCTPLGREGEECHPGSHKVPFFRKRKHHTCPCLPNLLCSRFPDGRYRCSMDLKNINF
In the case of B1, in test [1], the SRE luciferase fold-induction at 1 ng/ml, Rat2 cells with GPCR73a (fold-induction) was 1.2; the SRE luciferase fold-induction at 3.2 ng/ml, Rat2 cells with GPCR73a (fold-induction) was found to be 1.6; the SRE luciferase fold-induction at 10 ng/ml, Rat2 cells with GPCR73a (fold-induction) is 2.5; the SRE luciferase fold-induction at 32 ng/ml, Rat2 cells with GPCR73a (fold-induction) was found to be 5.8. In test [1], the SRE luciferase fold-induction at 100 ng/ml, Rat2 cells with GPCR73a (fold-induction) amounted to 11.4; the SRE luciferase fold-induction at 320 ng/ml, Rat2 cells with GPCR73a (fold-induction) turned out to be 24.4; the SRE luciferase fold-induction at 1000 ng/ml, Rat2 cells with GPCR73a (fold-induction) was 20. In test [2], the SRE luciferase fold-induction at 1 ng/ml, Rat2 cells with GPCR73b (fold-induction) was 1.1; the SRE luciferase fold-induction at 3.2 ng/ml, Rat2 cells with GPCR73b (fold-induction) came out at 1.3; the SRE luciferase fold-induction at 10 ng/ml, Rat2 cells with GPCR73b (fold-induction) stood at 1.8; the SRE luciferase fold-induction at 32 ng/ml, Rat2 cells with GPCR73b (fold-induction) turned out to be 2.8. Also, in test [2], the SRE luciferase fold-induction at 100 ng/ml, Rat2 cells with GPCR73b (fold-induction) is 5.6; the SRE luciferase fold-induction at 320 ng/ml, Rat2 cells with GPCR73b (fold-induction) was found to be 8.3; the SRE luciferase fold-induction at 1000 ng/ml, Rat2 cells with GPCR73b (fold-induction) amounted to 8.4. In addition, in test [3], the SRE luciferase fold-induction at 1 ng/ml, Rat2 cells with GPCR73a (fold-induction) amounted to 0.95; the SRE luciferase fold-induction at 3.2 ng/ml, Rat2 cells with GPCR73a (fold-induction) is 1.3; the SRE luciferase fold-induction at 10 ng/ml, Rat2 cells with GPCR73a (fold-induction) is 2.6; the SRE luciferase fold-induction at 32 ng/ml, Rat2 cells with GPCR73a (fold-induction) was 7.2. For the same molecule, in test [3], the SRE luciferase fold-induction at 320 ng/ml, Rat2 cells with GPCR73a (fold-induction) worked out at 20.5 and the SRE luciferase fold-induction at 1000 ng/ml, Rat2 cells with GPCR73a (fold-induction) worked out at 15. In test [4], the SRE luciferase fold-induction at 3.2 ng/ml, Rat2 cells with GPCR73b (fold-induction) was 1.4; the SRE luciferase fold-induction at 32 ng/ml, Rat2 cells with GPCR73b (fold-induction) came out at 2.7; the SRE luciferase fold-induction at 100 ng/ml, Rat2 cells with GPCR73b (fold-induction) was determined as 4.1; the SRE luciferase fold-induction at 320 ng/ml, Rat2 cells with GPCR73b (fold-induction) came out at 5.8. Further, in test [4], the SRE luciferase fold-induction at 1000 ng/ml, Rat2 cells with GPCR73b (fold-induction) was found to be 6.1.

B2: Zven1 protein produced in baculovirus with a C-terminal Glu-Glu tag (ligand)
chain: AVITGACDKDSQCGGGMCCAVSIWVKSIRICTPMGKLGDSCHPLTRKVPFFGRRMHHTCPCLPGLACLRTSFNRFICLAQKGLEYMPMD
For B2, in test [1], the SRE luciferase fold-induction at 1 ng/ml, Zven1 heated at 56 C for 30 minutes, Rat2 cells with GPCR73a (fold-induction) stood at 1.8; the SRE luciferase fold-induction at 1 ng/ml, fresh Zven1, Rat2 cells with GPCR73a (fold-induction) was 2.5; the SRE luciferase fold-induction at 3.2 ng/ml, Zven1 heated at 56 C for 30 minutes, Rat2 cells with GPCR73a (fold-induction) amounted to 3.7; the SRE luciferase fold-induction at 3.2 ng/ml, fresh Zven1, Rat2 cells with GPCR73a (fold-induction) was found to be 7.1. In addition, in test [1], the SRE luciferase fold-induction at 10 ng/ml, Zven1 heated at 56 C for 30 minutes, Rat2 cells with GPCR73a (fold-induction) amounted to 10; the SRE luciferase fold-induction at 10 ng/ml, fresh Zven1, Rat2 cells with GPCR73a (fold-induction) was 13.1; the SRE luciferase fold-induction at 32 ng/ml, Zven1 heated at 56 C for 30 minutes, Rat2 cells with GPCR73a (fold-induction) amounted to 14.8; the SRE luciferase fold-induction at 32 ng/ml, fresh Zven1, Rat2 cells with GPCR73a (fold-induction) worked out at 18.7. Also, in test [1], the SRE luciferase fold-induction at 100 ng/ml, Zven1 heated at 56 C for 30 minutes, Rat2 cells with GPCR73a (fold-induction) amounted to 18.6 and the SRE luciferase fold-induction at 100 ng/ml, fresh Zven1, Rat2 cells with GPCR73a (fold-induction) was 20.5. This molecule came in with an ERK-Map kinase activity EC50 in Wky12-22 cells (Arrayscan) in test [5] of 0.5 nM.
